Patent US20070213269

Columns and labels:
[1] = system: PBS1 (synthetic); assay: EMSA
[2] = system: PBS2 (synthetic); assay: EMSA
[3] = system: PBS1a (synthetic); assay: EMSA
[4] = system: KRAB-PBS1 (synthetic); assay: cell_activity; conditions: with Tat
[5] = system: KRAB-PBS2 (synthetic); assay: cell_activity; conditions: for activity (fold repression): with Tat
[6] = system: KRAB-PBS1a (synthetic); assay: cell_activity; conditions: with Tat
[7] = system: PBS3 (synthetic); assay: EMSA

“AAATCTCTAGCAGTGGCG [HIV-1 PBS hairpin, PBS1 site]” gave a Kd [1] of 0.79 nM.

“GCAGTGGCGCCCGAACAG [HIV-1 PBS hairpin, PBS2 site]” was tested, and the Kd [2] was 2.4 nM.

For “GTGTGGAAAATCTCTAGCAGTGGCG [HIV-1 PBS hairpin, PBS1a site]”, the Kd [3] was 1.25 nM.

“HIV-1 LTR-luciferase reporter (LTR658-luc)” showed an activity (fold repression) ([4]; HeLa) of 20, an activity (fold repression) ([5]; HeLa) of 28 and an activity (fold repression) ([6]; HeLa) of 9.5.

Work on HIV-1 with wild-type B-subtype LTR yielded an activity (% inhibition of virus production) ([5]; transduced PBMCs, NL4-3 challenge) of over 90.

“TGGCGCCCGAACAGGGAC [HIV-1 PBS hairpin, PBS3 site]” gave a Kd [7] of 0.93 nM.

With “chromosomally integrated HIV-1 LTR reporter (TZM-bl)” the activity (fold repression) ([4]; TZM-bl luciferase) was 7, the activity (fold repression) ([5]; TZM-bl luciferase) was 20 and the activity (fold repression) ([6]; TZM-bl luciferase) was 15.
